Source: publication PMC9355956, “Structure of human spermine oxidase in complex with a highly selective allosteric inhibitor” (Communications Biology, 2022)
Several values for one entry are separate records, joined by “and”; a condition that tells them apart may be missing. Equal entries are not always repeated.

Substrate: NCCCNCCCCNCCCN
Assay: purified protein, by the assay type
Settings: other: substrate, 2.5 nM hSMOX; 11.3 °C

B1: hSMOX (Homo sapiens) (protein)
chain: MQSCESSGDSADDPLSRGLRRRGQPRVVVIGAGLAGLAAAKALLEQGFTDVTVLEASSHIGGRVQSVKLGHATFELGATWIHGSHGNPIYHLAEANGLLEETTDGERSVGRISLYSKNGVACYLTNHGRRIPKDVVEEFSDLYNEVYNLTQEFFRHDKPVNAESQNSVGVFTREEVRNRIRNDPDDPEATKRLKLAMIQQYLKVESCESSSHSMDEVSLSAFGEWTEIPGAHHIIPSGFMRVVELLAEGIPAHVIQLGKPVRCIHWDQASARPRGPEIEPRGEGDHNHDTGEGGQGGEEPRGGRWDEDEQWSVVVECEDCELIPADHVIVTVSLGVLKRQYTSFFRPGLPTEKVAAIHRLGIGTTDKIFLEFEEPFWGPECNSLQFVWEDEAESHTLTYPPELWYRKICGFDVLYPPERYGHVLSGWICGEEALVMEKCDDEAVAEICTEMLRQFTGNPNIPKPRRILRSAWGSNPYFRGSYSYTQVGSSGADVEKLAKPLPYTESSKTAPMQVLFSGEATHRKYYSTTHGALLSGQREAARLIEMYRDLFQQGT
- Km: 34 µM and 33.9 ± 2.7 µM
